Earlier results, collected in patent US20250341526A1, “NOVEL DYES” (Quantum-Si Incorporated, priority 2024, published 2025).
Residue numbers refer to the chain shown, from its start.

B1: PS509: amino acid recognition protein, SEQ ID NO: 137 (protein)
chain: MICGHGFKTGEPTYSCRDCATDPTCVLCISCFQKSPHREHRYKMSASGGGGYCDCGDPEAWKIEPFCEQHKP
modifications: Lottia gigantean
B2: PS510: amino acid recognition protein, SEQ ID NO: 138 (protein, listed as Camponotus floridanus)
chain: MICGRMFKMGEPTYSCRQCGMDSTCVLCVDCFKQSAHRNHKYKMGTSSGGGCCDCGDTEAWKNEPFCKIHLA
B3: PS511: amino acid recognition protein, SEQ ID NO: 139 (protein, listed as Habropoda laboriosa)
chain: MICGKVFKMGEATYSCKECGVDPTCVLCADCFKQSAHRHHKYRMGTSSGGGFCDCGDIEAWKKEPFCNTHLA
B4: PS512: amino acid recognition protein, SEQ ID NO: 140 (protein, listed as Mastacembelus armatus)
chain: MLCGRVFKEGETVYSCRDCAIDPTCVLCMDCFQDSVHKSHRYKMHASAGGGFCDCGDVEAWKIGPYCSKHDP
B5: PS513: amino acid recognition protein, SEQ ID NO: 141 (protein, listed as Pyrenophora seminiperda)
chain: MPCGHIFKNGEATYRCKTCTADDTCVLCARCFDASDHEGHQVFVSVSPGNSGCCDCGDDEAWVRPVHCNIHSA
B6: PS514: amino acid recognition protein, SEQ ID NO: 142 (protein, listed as Tribolium castaneum)
chain: MVCGRVFKLGEPTYSCRECGMDNTCVLCVNCFKNSEHRFHKYKMGTSQGGGCCDCGDVEAWKKAPFCDVHIA
B7: PS515: amino acid recognition protein, SEQ ID NO: 143 (protein, listed as Wasmannia auropunctata)
chain: B2 chain with R5K, M9I, Q18E, N63K, I69T, L71V, A72V
B8: PS516: amino acid recognition protein, SEQ ID NO: 144 (protein)
chain: MLCGKVFKTGEPTYSCRDCANDPTCVLCIDCFQNGAHKNHRYKMNTSGGGGYCDCGDQEAWTSHPFCNLHSP
modifications: Crassostrea gigas
B9: PS517: amino acid recognition protein, SEQ ID NO: 145 (protein)
chain: MMCGRVFKMGEPTYSCRECGVDSTCVLCVGCFQQSAHRDHKYKMGTSGGGGCCDCGDTEAWKRDPFCEIHMV
modifications: Harpegnathos saltator
B10: PS518: amino acid recognition protein, SEQ ID NO: 146 (protein, listed as Nilaparvata lugens)
chain: MVCGRVFKMGEPSYHCRECGMDATCVLCVDCFKKSSHRNHKYKMGTSIGGGCCDCGDVEAWKTEPYCEVHIA
B11: PS519: amino acid recognition protein, SEQ ID NO: 147 (protein, listed as Manduca sexta)
chain: MLCGRVFKQGEPAYSCRECGMDNTCVLCVECFKVSAHRHHKYKMGQSGGGGCCDCGDTEAWKRDPFCELHAA
B12: PS520: amino acid recognition protein, SEQ ID NO: 148 (protein, listed as Monopterus albus)
chain: B4 chain with A48S, Y66C
B13: PS521: amino acid recognition protein, SEQ ID NO: 149 (protein)
chain: MLCGRVFRSGEPTYSCRDCAVDPTCVLCIDCFNNGAHRKHKYRMSTSSGGGYCDCGDKEAWKTDPLCEIHRK
modifications: Lingula anatine
B14: PS522: amino acid recognition protein, SEQ ID NO: 150 (protein, listed as Vombatus ursinus)
chain: MLCGKVFKSGETTYSCRDCAIDPTCVLCMNCFQSSVHKNHRYKMHTSTGGGFCDCGDTEAWKTGPFCTIHEP
B15: PS523: amino acid recognition protein, SEQ ID NO: 151 (protein, listed as Saccharomycetaceae sp.)
chain: MAKSHRHTGRNCGRAFQPGEPLYRCQECAYDDTCVLCISCFNPDDHVNHHVSTHICNELHDGICDCGDAEAWNVPLHCKAEED
B16: PS524: amino acid recognition protein, SEQ ID NO: 152 (protein, listed as Drosophila ficusphila)
chain: MVCGKVFKNGEPTYSCRECGVDPTCVLCVNCFKRSAHRFHKYKMSTSGGGGCCDCGDDEAWKKDHYCQLHLA
B17: PS525: amino acid recognition protein, SEQ ID NO: 153 (protein, listed as Mus musculus)
chain: B14 chain with N30D, T68V, I69D
B18: PS526: amino acid recognition protein, SEQ ID NO: 154 (protein, listed as Maylandia zebra)
chain: B4 chain with A48S
B19: PS527: amino acid recognition protein, SEQ ID NO: 155 (protein, listed as Mizuhopecten yessoensis)
chain: MLCGKVFKYGEPTYSCRDCANDPTCVLCIDCFQKSAHKKHRYKMSTSGGGGYCDCGDSEAWKTAPFCSNHKA
B20: PS528: amino acid recognition protein, SEQ ID NO: 156 (protein, listed as Kluyveromyces lactis)
chain: MHSKFNHAGRICGAKFRVGEPIYRCKECSFDDTCVLCVNCFNPKDHVGHHVYTSICTEFNNGICDCGDKEAWNHELNCKGAED
B21: PS529: amino acid recognition protein, SEQ ID NO: 157 (protein)
chain: B14 chain with S9G, N30D, S34N, V36I, F66L, T68A, I69N
modifications: Chelonia mydas
B22: PS530: amino acid recognition protein, SEQ ID NO: 158 (protein, listed as Acropora millepora)
chain: MLCGKVFKVGEPTYSCRDCGYDNTCVLCINCFQKSIHKNHHYKMNTSGGGGVCDCGDVEAWKEGEACEIHQQ
B23: PS531: amino acid recognition protein, SEQ ID NO: 159 (protein, listed as Musca domestica)
chain: B16 chain with N9I, V21M, P23Q, R34Q, F39Y, D58E, Q68E, L69E, A72R
B24: PS532: amino acid recognition protein, SEQ ID NO: 160 (protein, listed as Schizosaccharomyces cryophilus)
chain: MSCGRIFKKGEVFYRCKTCSVDSNSALCVKCFRATDHHGHETSFTISAGSGGCCDCGNSAAWIRDMPCKIHNR
B25: PS533: amino acid recognition protein, SEQ ID NO: 161 (protein, listed as Contarinia nasturtii)
chain: MVCGRVFKMNEPFYSCRECGMDPTCVLCVNCFKQSAHRHHKYKMGTSAGGGCCDCGDNEAWKQDHYCDEHTK
B26: PS534: amino acid recognition protein, SEQ ID NO: 162 (protein)
chain: MKCGHIFRKGEVFYRCKTCSVDSNSALCVKCFRATSHKDHETSFTVSAGSGGCCDCGNAAAWIGDVSCKIHSH
modifications: Schizosaccharomyces pombe
B27: PS535: amino acid recognition protein, SEQ ID NO: 163 (protein, listed as Mus musculus)
chain: MLCGRVFKVGEPTYSCRDCAVDPTCVLCMECFLGSIHRDHRYRMTTSGGGGFCDCGDTEAWKEGPYCQKHKL
B28: PS536: amino acid recognition protein, SEQ ID NO: 164 (protein, listed as Aphis gossypii)
chain: MVCGRVFKMGEPTYNCRECGMDSTCVLCVDCFKRSPHKNHKYKMGTSYGGGCCDCGDVEAWKHDPYCQTHKL
B29: PS537: amino acid recognition protein, SEQ ID NO: 165 (protein, listed as Aedes aegypti)
chain: MVCGRVFKIGEPTYSCRECSMDPTCVLCSSCFKKSSHRLHKYKMSTSGGGGCCDCGDHEAWKRDPSCEEHAV
B30: PS538: amino acid recognition protein, SEQ ID NO: 166 (protein, listed as Saccharomyces cerevisiae)
chain: MGDVHKHTGRNCGRKFKIGEPLYRCHECGCDDTCVLCIHCFNPKDHVNHHVCTDICTEFTSGICDCGDEEAWNSPLHCKAEEQ
B31: PS25: amino acid recognition protein, SEQ ID NO: 167 (protein, listed as Saccharomyces cerevisiae)
chain: B30 chain with D3S
B32: PS539: amino acid recognition protein, SEQ ID NO: 168 (protein, listed as Kazachstania africana)
chain: MQTSFTHKGRNCGRKFKVGEPLYRCHECGFDDTCVLCIHCFNPADHENHHIYTDICNDFTSGICDCGDTEAWNGDLHCKAEEI

system: amino acid at a terminal position of a polypeptide; details: Table 2; amino acid at terminal position (phosphotyrosine also internal); inferred from literature and/or demonstrated by the inventors; cited from earlier work

Molecule	Binding Pref.
B1	K, R, H
B2	K, R, H
B3	K, R, H
B4	K, R, H
B5	K, R, H
B6	K, R, H
B7	K, R, H
B8	K, R, H
B9	K, R, H
B10	K, R, H
B11	K, R, H
B12	K, R, H
B13	K, R, H
B14	K, R, H
B15	K, R, H
B16	K, R, H

Molecule	Binding Pref.
B17	K, R, H
B18	K, R, H
B19	K, R, H
B20	K, R, H
B21	K, R, H
B22	K, R, H
B23	K, R, H
B24	K, R, H
B25	K, R, H
B26	K, R, H
B27	K, R, H
B28	K, R, H
B29	K, R, H
B30	K, R, H
B31	K, R, H
B32	K, R, H
